{
  "source": "paper PMC10954480",
  "target": "6x His-tagged RecB nuclease domain (RecB^928–1180) (Escherichia coli) (UniProt P08394)",
  "sequence (P08394 928-1180)": "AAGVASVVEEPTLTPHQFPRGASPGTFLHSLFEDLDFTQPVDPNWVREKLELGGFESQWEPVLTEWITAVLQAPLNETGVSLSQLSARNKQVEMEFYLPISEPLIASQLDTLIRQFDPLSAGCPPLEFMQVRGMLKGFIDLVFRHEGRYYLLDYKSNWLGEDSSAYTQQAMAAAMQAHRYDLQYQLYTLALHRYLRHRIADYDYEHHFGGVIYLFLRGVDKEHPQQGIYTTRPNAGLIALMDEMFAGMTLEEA",
  "test": "pull-down",
  "data": [
    {"substance": "RecB^1–927CD, truncated RecBCD enzyme lacking the RecB nuclease domain, P08394 1-927; P07648 1-1122; P04993 1-608", "values": [
      {"measurement": "stoichiometry N (moles RecB^hCD per mole RecB^n)", "result": 0.95}
    ]}
  ]
}
